From patent US20190092872A1 (Hoffmann-La Roche, published 2019) come the findings set out here.

For test [1], the target named is T1, FcγRI (UniProt P12314 16-288, limits assumed).
T1 construct: Captured from a 100 nM solution on immobilized anti-His antibody; also called FcγRI receptor; FcγRIa
Nature of the test: SPR steady state affinity; reference is the IgG1 Wt affinity for FcγRI.
Description: (§1) Biacore T100 system (GE Healthcare) with high immobilized anti-His capturing antibody (GE Healthcare). Immobilization of the anti-His capturing antibody was performed on a CMS chip using the standard amine coupling kit (GE Healthcare) at pH 4.5 10 mM sodium acetate and 10 μg/ml anti-His solution. The immobilization level of anti-His reached more than 10.000 RU. FcγRI was applied in a 100 nM solution, in the running buffer HBS-P+ and captured with a pulse of 60 sec at a flow rate of 30 μl per min. […] The dissociation phase was monitored for 180 sec. The surface was regenerated by a 60 sec washing step with a 10 mM Glycine pH 1.5 at a flow rate of 30 μl per min. The stabilization period took 60 sec. The Biacore T100 evaluation software was used for data analysis.
(§2) For the steady state affinity concentration determination the response values from the end of association were used to plot the response against the concentration. The Biacore T100 evaluation software was used to calculate the affinity of samples for immobilized FcγRI receptor from the plot.

Test [2] deals with T1, FcγRI. Put plainly: SPR steady state affinity (Biacore T100), FcγRI captured via anti-His antibody, antibody 1000-62.5 nM. (In general: SPR reads the build-up and loss of mass on a sensor chip optically.)
Description: as §1, §2
The target in test [3] is T2, FcγRIIIA (UniProt P08637 17-208, limits assumed).
T2 construct: Captured from a 200 nM solution on immobilized anti-His antibody; also called CD16
Nature of the test: SPR (Biacore T100), FcγRIIIA with His tag captured on immobilised anti-His antibody, antibody injected (Example 9).
Description: The SPR interaction analysis of captured FcγRIIIA and IgG1 Fc variants was performed on a Biacore T100 system (GE Healthcare) with high immobilized anti-His capturing antibody (GE Healthcare). Immobilization of the anti-His capturing antibody was performed on a CMS chip using the standard amine coupling kit (GE Healthcare) at pH 4.5 10 mM sodium acetate and 10 μg/ml anti-His solution. The immobilization level of anti-His reached more than 10.000 RU. FcγRIIIA was applied in a 200 nM solution, in the running buffer HBS-P+ and captured with a pulse of 60 sec at a flow rate of 30 μl per min. […] The dissociation phase was monitored for 180 sec. The surface was regenerated by a 60 sec washing step with a 10 mM Glycine pH 1.5 at a flow rate of 30 μl per min. The stabilization period took 60 sec. The Biacore T100 evaluation software was used for data analysis.

Test [4] addresses T1, FcγRI. Nature of the test: SPR steady state affinity fit, FcγRI captured on anti-His antibody; beside it offset (RU) 26.88 and Chi² (RU²) 7.76.
Description: as §1, §2

T1 sequence (P12314 16-288 limits assumed): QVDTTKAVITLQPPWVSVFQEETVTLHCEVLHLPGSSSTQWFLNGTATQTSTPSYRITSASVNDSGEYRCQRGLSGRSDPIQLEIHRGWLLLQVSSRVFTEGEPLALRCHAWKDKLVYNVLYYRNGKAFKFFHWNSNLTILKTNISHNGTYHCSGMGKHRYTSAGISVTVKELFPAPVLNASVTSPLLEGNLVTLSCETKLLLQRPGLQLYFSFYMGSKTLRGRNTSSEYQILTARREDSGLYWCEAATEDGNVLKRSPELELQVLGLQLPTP
T2 sequence (P08637 17-208 limits assumed): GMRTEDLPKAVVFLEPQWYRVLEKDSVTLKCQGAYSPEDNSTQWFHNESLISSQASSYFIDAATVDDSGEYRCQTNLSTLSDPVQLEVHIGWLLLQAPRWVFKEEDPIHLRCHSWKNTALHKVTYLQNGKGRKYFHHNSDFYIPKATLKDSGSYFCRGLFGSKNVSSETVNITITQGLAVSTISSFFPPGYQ

B1: obinutuzumab N297D (antibody)
heavy: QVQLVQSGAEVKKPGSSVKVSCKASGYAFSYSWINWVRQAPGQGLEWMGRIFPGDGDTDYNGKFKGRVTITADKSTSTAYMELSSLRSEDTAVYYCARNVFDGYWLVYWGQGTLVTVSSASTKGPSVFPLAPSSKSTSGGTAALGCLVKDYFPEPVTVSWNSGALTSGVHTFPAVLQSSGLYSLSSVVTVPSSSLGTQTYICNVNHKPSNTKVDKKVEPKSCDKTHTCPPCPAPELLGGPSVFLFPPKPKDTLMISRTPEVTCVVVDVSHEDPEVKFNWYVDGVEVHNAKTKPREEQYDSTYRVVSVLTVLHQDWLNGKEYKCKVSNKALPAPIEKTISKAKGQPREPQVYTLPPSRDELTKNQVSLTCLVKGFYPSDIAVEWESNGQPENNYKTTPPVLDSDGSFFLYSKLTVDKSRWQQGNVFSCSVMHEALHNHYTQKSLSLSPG
VL: DIVMTQTPLSLPVTPGEPASISCRSSKSLLHSNGITYLYWYLQKPGQSPQLLIYQMSNLVSGVPDRFSGSGSGTDFTLKISRVEAEDVGVYYCAQNLELPYTFGGGTKVEIK
modifications: N297D removes the Fc N-glycosylation site, so the antibody is aglycosylated ('aglyco').
notes: IgG1 expressed in HEK-EBNA or HEK293 and purified by protein A and size exclusion chromatography; also called GA101 N297D; GA101 aglyco (N297D)
As a reminder, the Kd is the concentration at which binding is half-saturated. A higher Kd goes with weaker binding. For the molecule B1, the “fold below the IgG1 Wt affinity” value in test [1] is around 50 fold. For the same molecule, the Kd in test [2] and in test [4] was 0.234 µM throughout. The binding result in test [3] is “no binding (tested: 1000 nM)”.
